Among the data in paper PMC3848040 are Km values, retold here.

Substrate in this data set: Nc1ncnc2c1ncn2[C@@H]1O[C@H](COP(=O)(O)OP(=O)(O)OP(=O)(O)O)[C@@H](O)[C@H]1O
The experiment in a line: purified protein. The following applies: phosphate donor; activity depends on divalent ions.

B1: SGK196dTM (Homo sapiens) (protein)
chain: APRQSTVDPTHCPYGHFRIGQMKNCSPWLSCEELRTEVRQLKRVGEGAVKRVFLSEWKEHKVALSQLTSLEMKDDFLHGLQMLKSLQGTHVVTLLGYCEDDNTMLTEYHPLGSLSNLEETLNLSKYQNVNTWQHRLELAMDYVSIINYLHHSPVGTRVMCDSNDLPKTLSQYLLTSNFSILANDLDALPLVNHSSGMLVKCGHRELHGDFVAPEQLWPYGEDVPFHDDLMPSYDEKIDIWKIPDISSFLLGHIEGSDMVRFHLFDIHKACKSQTPSERPTAQDVLETYQKVLDTLRDAMMSQAREML
The term Km denotes the concentration of substrate that gives half-maximal velocity. Take B1: the Km stood at 4.1 ± 1.4 µM.
